In patent US20240317874A1 (HIFIBIO HK, published 2024):

Assays:
[1] = target: T1, recombinant human OX40-mFc protein (human, UniProt P43489 29-214); assay: BLI (Octet QKe), antibody on anti-human Fc sensor, OX40-mFc in solution, 25 C, pH 7.4, 1:1 model; Experiment B
T1 construct: Recombinant dimer (mFc-tagged); also called hOX40.mFc; recombinant human OX40 protein; not shown: mFc tag
T1 sequence: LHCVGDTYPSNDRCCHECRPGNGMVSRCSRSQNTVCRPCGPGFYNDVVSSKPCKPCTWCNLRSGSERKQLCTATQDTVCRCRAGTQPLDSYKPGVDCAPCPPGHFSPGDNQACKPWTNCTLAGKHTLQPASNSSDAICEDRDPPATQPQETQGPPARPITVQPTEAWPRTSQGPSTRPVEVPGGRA

[2] = target: T2, human OX40 protein expressed on the surface of cells (human, UniProt P43489 29-277); assay: flow cytometry (MFI) on transfected 293T cells
T2 construct: also called hOX40
T2 sequence: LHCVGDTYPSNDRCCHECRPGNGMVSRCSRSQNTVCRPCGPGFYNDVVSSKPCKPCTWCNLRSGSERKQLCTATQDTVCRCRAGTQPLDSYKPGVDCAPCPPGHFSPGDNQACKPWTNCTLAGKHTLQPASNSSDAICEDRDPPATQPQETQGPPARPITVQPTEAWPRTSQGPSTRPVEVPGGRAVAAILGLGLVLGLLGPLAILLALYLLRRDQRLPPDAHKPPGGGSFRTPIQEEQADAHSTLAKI

[3] = target: T3, cynomolgus monkey OX40 protein expressed on the surface of cells (cynomolgus monkey); assay: flow cytometry (MFI) on transfected 293T cells
T3 construct: whole, on cells; On transiently transfected 293T cells

[4] = target: T2, human OX40 protein expressed on the …; assay: flow cytometry (MFI) on CD3/CD28-activated primary human CD4+CD3+ T cells, second donor
Description: Activation of human T cells were evaluated using CD3⁺ T cells isolated from two human donors' peripheral blood mononuclear cells (hPBMCs) pre-activated using CD3/CD28 Dynabeads.

[5] = target: T4, mouse OX40 protein expressed on the surface of 293T cells (mouse, UniProt P47741 20-272); assay: flow cytometry on 293T cells transiently transfected with mouse OX40, goat anti-human IgG PE, MFI
T4 construct: whole, on cells
T4 sequence (looked up): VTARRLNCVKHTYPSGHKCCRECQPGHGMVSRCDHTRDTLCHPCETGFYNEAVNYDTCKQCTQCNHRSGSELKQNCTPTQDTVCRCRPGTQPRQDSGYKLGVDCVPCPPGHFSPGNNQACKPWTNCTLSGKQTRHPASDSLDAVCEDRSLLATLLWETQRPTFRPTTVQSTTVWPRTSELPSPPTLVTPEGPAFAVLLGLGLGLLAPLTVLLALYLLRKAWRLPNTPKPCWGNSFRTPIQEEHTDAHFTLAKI
Description: (§1) Then, after washing twice with PBS, the cells were incubated with the secondary goat anti-human IgG PE antibody (1:200; Abcam, Cat. ab98596) at room temperature for 30 minutes.

[6] = target: T2, human OX40 protein expressed on the …; assay: cell-based or functional assay
[7] = target: T3, cynomolgus monkey OX40 protein …; assay: flow cytometry (MFI) on activated primary monkey T cells, donor Lot #200107
[8] = target: T3, cynomolgus monkey OX40 protein …; assay: flow cytometry (MFI) on 293T cells expressing cynomolgus monkey OX40
[9] = target: T5, biotinylated OX40 recombinant protein (UniProt P43489 29-216, limits assumed, biotinylated); assay: ELISA, plate coated with the antibody, biotinylated OX40 recombinant protein titrated (x axis = its concentration in nM), OD 450nm
T5 construct: also called OX40 protein; Biotin-OX40
T5 sequence (looked up): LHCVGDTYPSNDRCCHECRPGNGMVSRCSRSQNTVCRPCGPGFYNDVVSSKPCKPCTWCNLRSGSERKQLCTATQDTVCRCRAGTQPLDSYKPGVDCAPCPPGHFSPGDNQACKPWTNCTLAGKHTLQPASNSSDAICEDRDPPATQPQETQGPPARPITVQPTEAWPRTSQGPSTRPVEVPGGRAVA
Description: The next day, the plate was blocked with 1% BSA (Sangon Biotech, catalog number A600332-0100) in PBST at 37° C. for 2 hours, and then a defined concentration of biotinylated OX40 recombinant protein was added.

[10] = target: T2, human OX40 protein expressed on the …; assay: flow cytometry (MFI) on CD3/CD28-activated primary human CD4+CD3+ T cells, first donor
[11] = target: T2, human OX40 protein expressed on the …; assay: flow cytometry (MFI) on 293T cells expressing human OX40
[12] = target: T1, recombinant human OX40-mFc protein; assay: BLI (Octet QKe), antibody on anti-human Fc sensor, OX40-mFc in solution, 25 C, pH 7.4, 1:1 model; Experiment A
Description: The changes of binding signal were recorded, and the kinetic analysis of binding parameters were determined using the Model: 1:1 with the mass transfer limitation. The running buffer solution was prepared with PBS, pH 7.4, containing 0.1% BSA and 0.1% Tween 20. Prior to the kinetic binding experiment, the anti-human Fe capture sensor was rinsed with the running buffer, and the instrument was prewarmed to 25° C. […] The binding of OX40 protein and its antibodies was performed in duplicate with the running buffer at pH 7.4 and 25° C. In short, first, the anti-human Fc capture sensor was immersed in the running buffer for 300 seconds to set the first baseline. The sensor was then mixed with 200 nM test antibody solution for 600 seconds to load the antibody. The sensor was again immersed in the running buffer for 300 seconds to set the second baseline, and then associated with various concentrations of OX40 antigen for 900 seconds. Then dissociation was performed by immersing the sensor in the running buffer for another 900 seconds. In parallel, one sensor was selected as a reference, in which all loading, association, and dissociation steps were performed in the running buffer. […] The sensorgrams were analyzed by Fortebio data analysis software version 8.2 (ForteBio; Fremont, CA). First, the signals were subtracted from the negative control experiment, and compared to the baselines. The kinetic parameters were obtained by entirely fitting these specific sensorgrams with different antigen concentrations to the binding Model: 1:1.

[13] = target: T6, human CD40 protein expressed on the surface of 293T cells (human, UniProt P25942 21-277); assay: flow cytometry on 293T cells transiently transfected with human CD40 (293T-hCD40), goat anti-human IgG PE, MFI
T6 construct: whole, on cells
T6 sequence (P25942 21-277): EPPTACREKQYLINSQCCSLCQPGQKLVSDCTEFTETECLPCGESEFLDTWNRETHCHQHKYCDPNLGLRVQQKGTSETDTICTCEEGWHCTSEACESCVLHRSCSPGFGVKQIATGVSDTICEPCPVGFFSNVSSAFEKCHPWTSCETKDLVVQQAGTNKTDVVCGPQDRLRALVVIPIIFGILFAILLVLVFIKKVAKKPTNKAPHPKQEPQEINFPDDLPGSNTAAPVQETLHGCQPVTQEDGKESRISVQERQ
Description: as §1

[14] = target: T3, cynomolgus monkey OX40 protein …; assay: flow cytometry (MFI) on activated primary monkey T cells, donor M20Z013009
[15] = target: T3, cynomolgus monkey OX40 protein …; assay: flow cytometry (MFI) on activated primary monkey T cells, donor M20Z025008

B1: anti-OX40 antibody HFB10-1E1hG1 (antibody, human IgG1, kappa, V domains shown)
VH: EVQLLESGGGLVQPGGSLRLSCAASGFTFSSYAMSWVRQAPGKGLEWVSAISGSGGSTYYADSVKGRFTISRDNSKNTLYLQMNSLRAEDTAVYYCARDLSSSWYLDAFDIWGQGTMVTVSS
VL: DIQMTQSPSSVSASVGDRVTITCRASQGISSWLAWYQQKPGKAPKLLIYAASSLQSGVPSRFSGSGSGTDFTLTISSLQPEDFATYYCQQANSFPLTFGGGTKLEIKR
notes: also called HFB301001
Kd [1]: 4.4 nM
koff [1]: 0.00043 s⁻¹
kon [1]: 97000 M⁻¹ s⁻¹
EC50 [2]: 2 nM
EC50 [3]: 2.9 nM
EC50 [4]: 1.36 nM
binding result [5]: no binding (tested: 100 nM)
CD16 signaling in CD16-NF-AT-Luc reporter Jurkat cells, EC50 (nM), E:T 1:1 [6]: 1.2 nM
CD16 signaling in CD16-NF-AT-Luc reporter Jurkat cells, EC50 (nM), E:T 3:1 [6]: 0.7 nM
CD16 signaling in CD16-NF-AT-Luc reporter Jurkat cells, EC50 (nM), E:T 6:1 [6]: 0.5 nM
CD16 signaling in CD16-NF-AT-Luc reporter Jurkat cells, EC50 (nM), E:T 12:1 [6]: 0.3 nM
EC50 [7]: 0.09 nM
EC50 [8]: 2.94 nM
EC50 (read off the curve) [9]: ~0.2 nM
EC50 [10]: 0.65 nM
EC50 [11]: 2.02 nM
Kd [12]: 4.5 nM
koff [12]: 0.00043 s⁻¹
kon [12]: 97000 M⁻¹ s⁻¹
binding result [13]: no binding (tested: 100 nM)
EC50 [14]: 0.19 nM
EC50 [15]: 0.17 nM
